# Test system: MS2 coat protein
# Test: apparent KD of MS2 coat protein; designed switch direction (-1 OFF switch, 1 ON switch): -1; higher = weaker reporter binding
# Summary of the method: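 On Illumina chips, designed RNA switches with common flanks were made by stalled E. coli RNA polymerase. Titrations with SNAP-549-labelled MS2 coat protein, doubling from 0.7 or 1.5 nM to 3 µM, were done with no input, with 200 uM small-molecule ligand, or with an oligonucleotide input. Apparent KD is the median per design over clusters, from curve fits of normalised cluster fluorescence.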
# [1] = input ligand: microRNA oligo, concentration not stated
# [2] = Eterna round: R95, input ligand: FMN 200 uM
# [3] = Eterna round: R95, input ligand: microRNA oligo, concentration not stated
# [4] = Eterna round: R95, input ligand: none
Sequence,apparent KD of MS2 coat protein (input ligand: FMN 200 uM),apparent KD of MS2 coat protein (input ligand: none),apparent KD of MS2 coat protein [1],apparent KD of MS2 coat protein [2],apparent KD of MS2 coat protein [3],apparent KD of MS2 coat protein [4]
"UCCAGCAUACGGAGAUCCAACAUGAGGAUCACCCAUGUCUGGAAAGCUUUUUGCUUGUCUUAUCCGUCUCUGUGUGU [Design #7] (Eterna round: R97, puzzle: Sensor, turn-off variant 1)",32.7 nM,35.8 nM,–,–,–,–
"AGUUGUAAAGAGGAUAUCCAUCCCGGCAUCCAUGGAGAAGGUUUAACAUGAGGAUCACCCAUGUCAUGAUCCUC [Eternabot (L2) Solution 3] (Eterna round: R97, puzzle: Exclusion 6)",824 nM,692 nM,–,–,–,–
"AAUCUACAUGUAGGAUAUGCGUGGCAAAGCUAUGCAGAAGGACAUGAGGAUCACCCAUGUUUUAGCGUCUGCGUACAGAUGCGA [Mat - Exclusion NG 1 - Mod of JL - D100] (Eterna round: R96, puzzle: Exclusion NG 1)",147 nM,27.9 nM,18.4 nM,–,–,–
GUAGAGACAGGAUAUACAUGAGGAUCACCCAUGUAAGGAGGAAGAGAGAGGAGAAGGAGUAGAAGGGUCAGAGG [JR_Exclu3_Sub029] (puzzle: Exclusion 3),–,–,–,29.2 nM,35.3 nM,35.2 nM
UCUAAACAUGAGGAUCACCCAUGUGAGGAUAUGAUGCAGCAGUGGUCUACGCUGUGCAUCAGAAGGCGCAUGUG (puzzle: Exclusion 1),–,–,–,148 nM,72.2 nM,80.4 nM
"UAUGGUAAAGUCAGGAUAUACGUGCAGUUUUCUAGGUAGAAGGGACAUGAGGAUCACCCAUGUAUGGUAGUGUU [Ex4 #46] (Eterna round: R97, puzzle: Brourd's mod of Exclusion 4)",95.1 nM,83.5 nM,–,–,–,–
"CAAAAGAAAGGAUAUACUUGAGGAUCACCCAAGUAUGCCCGCUGAAGCGGGCCCUUGAGUAGAAGGUUCAUAAA [Ened] (Eterna round: R97, puzzle: Exclusion 3)",33.2 nM,15.6 nM,–,–,–,–
CGGUGCUGAGGAUAUACAUGAGGAUCACCCAUGUGUUCCAGCUAGCGUACUGGCGGAUGUAGAAGGCGGUACUG [JL-ex3-3.40 Brourd mod] (puzzle: Exclusion 3),–,–,–,52.8 nM,13.1 nM,17.7 nM
"CACCGUUAACUAGGAUAUCGUACAUGAGGAUCACCCAUGUAAUAAAUGAGAAUUUCGGAUGUAUGCGAGAAGGAGUAAAUCGGC [Ostricism 46 - Jieux - Exclusion NG 2] (Eterna round: R96, puzzle: Exclusion NG 2)",40.8 nM,37.3 nM,27.6 nM,–,–,–
"UUCCAUUCAGGAUAUCGAUGGAAUCACAUGAGGAUCACCCAUGUGAUACCUAGGUGACCGCGAGAAGGGAAAGGGU [EX5 B.7] (Eterna round: R97, puzzle: Exclusion 5)",13.8 nM,12.9 nM,–,–,–,–
GCAUCCAUAGUGAGGAUAUACCUCUGGAUACAUAGGUAGAAGGCACAUGAGGAUCACCCAUGUUCCUAGGAUGC [Fiskers BMX 4 - 33] (puzzle: Brourd's mod of Exclusion 4),–,–,–,–,16.9 nM,–
"UAUUUUGCAAGCAGAUCCCACAUGAGGAUCACCCAUGUGCUCGUCUUAUAAGGUUCUGUGACGAUAGUCACGGUACC [mod -Eli mod] (Eterna round: R97, puzzle: Sensor, turn-off variant 1)",45.9 nM,46.1 nM,–,–,–,–
AAGAAACAUGAGGAUCACCCAUGUGAGGAUAUGAAAAAGAAAAGAAAAGAAAGAAGAAUCAGAAGGCACAAAGU [salish99-ex1_r3_089] (puzzle: Exclusion 1),–,–,–,26.5 nM,25.9 nM,32.6 nM
"GGCCUUCCACGAGCUUUUUACAUGAGGAUCACCCAUGUGGUUUUUAGUCUUAUCCCGGGCCCGCUGUCGGGCCCGGG [-32.2, -52.8, A 13%] (Eterna round: R97, puzzle: Sensor, turn-off variant 1)",29.1 nM,33 nM,–,–,–,–
"GCCGGAGCAGGAUAUCUAAUAUAUCACAUGAGGAUCACCCAUGUCCAGCGAAAGCUGGAGGGAGAAGGGCUCUGGC [Fiskers Ex 5 - 22] (Eterna round: R96, puzzle: Exclusion 5)",47 nM,143 nM,99.1 nM,–,–,–
"CAGCCCUGAGGAUAUCCAUCCUCGUACAUGAGGAUCACCCAUGUCUCCCUCUGGGCUUUCGGAGAAGGCAGGUAUC [Megrez-6.1] (Eterna round: R97, puzzle: Exclusion 5)",743 nM,976 nM,–,–,–,–
"AAUUAACAUCAGGAUAUGACUAGCGAUAGCUAGUCAGAAGGGAUGACAUGAGGAUCACCCAUGUGAUCAAUUAA [E6/2-A4] (Eterna round: R97, puzzle: Exclusion 6)",492 nM,131 nM,–,–,–,–
"UAUGGUUAAGUCAGGAUAUGCUCGUAGAGGUCUAUGCAGAAGGGACAUGAGGAUCACCCAUGUAUGGUCGUGUU [Ex4 #67] (Eterna round: R97, puzzle: Brourd's mod of Exclusion 4)",161 nM,67 nM,–,–,–,–
"ACACACACAGGAUAUCUUCCGCAUGACAUGAGGAUCACCCAUGUGUGCAUGCCCAAAAGUAGAGAAGGGUGUGUGU [eternacac ex5r4 #2] (Eterna round: R97, puzzle: Exclusion 5)",26.2 nM,29.2 nM,–,–,–,–
"GCUUUUGGGCAAGGAUAUCCUGCGCGGUUCCGGUUCGUGUCUGUCACAUGAGGAUCACCCAUGUGGGAGAAGGUGCCUGCGGUG [Design 73] (Eterna round: R96, puzzle: Exclusion NG 2)",21.5 nM,19 nM,11.7 nM,–,–,–
"AAUUAUUUUUGAGGAUAUCGUGGUGAAACACCACGAGAAGGCGAGAUACACAUGAGGAUCACCCAUGUGAGCCUGAUGCUUAUG [Ex NG1 #51] (Eterna round: R96, puzzle: Exclusion NG 1)",–,–,11.5 nM,–,–,–
"CAUGAUUGGCGAGGAUAUUGAUCUAGUUGGCGACGAGAAGGCGCCUGUCACAUGAGGAUCACCCAUGUGAAUCUGGUGAAAGAG [Ex NG1 #89] (Eterna round: R96, puzzle: Exclusion NG 1)",24.9 nM,25.9 nM,18.5 nM,–,–,–
"UCCUCACAUGAGGAUCACCCAUGUUAGGAUAUCUUAGAGCGCGAAUGACAGUUCUUUAAGAGAAGGAACUGGGC [Exclusion 1 (MOD1.2 of Edarti)] (Eterna round: R97, puzzle: Exclusion 1)",50.5 nM,20.1 nM,–,–,–,–
"GUCGUGCGGCUUUGCUGUACGAGUACAUGAGGAUCACCCAUGUAGGAUAUGGUUCGUUUUGCGUGCUAGAAGGGCGUGCGUUGU [Excl-NG3-LRO15] (Eterna round: R96, puzzle: Exclusion NG 3)",–,–,17.9 nM,–,–,–
"CUCCUCGUGGCGCCUAAACACAUGAGGAUCACCCAUGUACAGGCUUUUUGCCGUCUUAUAAUAAAACCGAGGAGGCG [Arce] (puzzle: Sensor v3, turn-off variant 1)",–,–,–,13.7 nM,22.1 nM,15.9 nM
"CGGGCCGGCCUUCCGGCCGGCCCGACAUGAGGAUCACCCAUGUAGGAUAUCCCGGCUGCCGGCCGGGAGAAGGACAUGCGCCCG [-45.9, -45.9 kcal, 17% A] (Eterna round: R96, puzzle: Exclusion NG 3)",104 nM,49.3 nM,65.3 nM,–,–,–
"AAAUAGAAAGGAUAUACAGGCAUCCUUACCAGAGCGAGCUCACAUGAGGAUCACCCAUGUAGAAGGUUCAUAGC [EX2 C.17] (Eterna round: R97, puzzle: Exclusion 2)",34.9 nM,31.8 nM,–,–,–,–
"GCCGGCUGAGGAUAUACAUGAGGAUCACCCAUGUGCUUCAGCCGGGAGACCGGCAUUGGUAGAAGGCAGCCGGC [Mod of lroppy 21 - Jieux - Exclusion 3] (Eterna round: R97, puzzle: Exclusion 3)",14.5 nM,14.7 nM,–,–,–,–
"AACAAGCUUUAAAGAUCCCACAUGAGGAUCACCCAUGUGCUCGUCUUAUAACGUACUGUGACGAAAGUCACGGUACG [JL TOV1 3.25] (Eterna round: R97, puzzle: Sensor, turn-off variant 1)",27.7 nM,37.4 nM,–,–,–,–
"CGUAAGCUAGGAUAUGCUUUGGGAAAGCAUUCCUUCGAUAAACUUGAGGAUCACCCAAGUAGAAGGAGCUUACG [salish99_ex2_r4_010] (Eterna round: R97, puzzle: Exclusion 2)",24.8 nM,16.8 nM,–,–,–,–

# Source: the supplement of paper PMC9170038
